Results reported in article PMC8849102.

Molecular target: recombinant human ICAM-5 Fc Chimera (human) (UniProt Q9UMF0)
Test: pull-down; ICAM-5 Fc chimera covalently attached to magnetic Dynabeads; incubated with the 1.11 (membrane-associated) or 1.20 g/cm^3 (naked) viral density fraction for 1 h at 33°C, then overnight at 4°C; beads rinsed 2x for 10 min in PBS; bound virus read as viral titer (TCID50) after PBS plus 0.1% NP-40; control: nonspecific antibody-coated beads

Chain of UniProt Q9UMF0 (Q9UMF0 32-835, stated change not applied): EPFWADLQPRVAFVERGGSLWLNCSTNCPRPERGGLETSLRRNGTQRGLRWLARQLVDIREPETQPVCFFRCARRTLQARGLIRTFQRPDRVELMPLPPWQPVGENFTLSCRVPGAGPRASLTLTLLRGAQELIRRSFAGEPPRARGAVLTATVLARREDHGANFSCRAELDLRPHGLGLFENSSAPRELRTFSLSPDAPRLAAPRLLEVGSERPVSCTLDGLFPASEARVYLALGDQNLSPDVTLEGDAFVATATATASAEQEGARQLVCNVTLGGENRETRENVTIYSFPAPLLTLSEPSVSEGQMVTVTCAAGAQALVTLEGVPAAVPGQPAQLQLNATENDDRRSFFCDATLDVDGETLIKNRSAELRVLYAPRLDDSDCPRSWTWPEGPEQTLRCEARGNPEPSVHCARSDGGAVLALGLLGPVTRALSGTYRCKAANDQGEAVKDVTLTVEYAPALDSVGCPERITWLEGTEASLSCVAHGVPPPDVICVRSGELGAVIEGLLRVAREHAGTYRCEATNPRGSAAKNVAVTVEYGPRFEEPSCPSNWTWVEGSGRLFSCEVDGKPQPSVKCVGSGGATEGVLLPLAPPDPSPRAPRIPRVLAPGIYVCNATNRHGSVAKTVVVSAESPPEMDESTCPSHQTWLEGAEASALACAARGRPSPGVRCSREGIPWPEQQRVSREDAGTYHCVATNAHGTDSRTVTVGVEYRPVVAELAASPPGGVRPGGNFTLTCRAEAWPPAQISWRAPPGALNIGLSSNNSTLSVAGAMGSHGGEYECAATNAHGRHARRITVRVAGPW

Which fold viral titer immunoprecipitated over control beads does the source give for “Enterovirus D68 (EV-D68) viral particles, strain US/MO/14-18947 (complex)” here?
The fold viral titer immunoprecipitated over control beads was 1000 fold.
